Results on 23 molecules are retold here after patent US20170129961A1 (Amgen, published 2017).

One test addresses T1, human CD70 (human, UniProt P32970 1-193).
T1 construct: also called hu CD70; CD27L
T1 sequence: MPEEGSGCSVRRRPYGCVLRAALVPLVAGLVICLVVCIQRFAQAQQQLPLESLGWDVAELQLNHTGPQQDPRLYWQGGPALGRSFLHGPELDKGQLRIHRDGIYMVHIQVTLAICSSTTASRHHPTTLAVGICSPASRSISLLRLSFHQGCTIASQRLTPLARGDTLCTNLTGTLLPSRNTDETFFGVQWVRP
Briefly: FACS on CHO cells, periplasmic scFv.

Test [1] has as its target T2, full-length mouse CD70 with C-terminal V5 tag (mouse, UniProt O55237 1-195).
T2 construct: On transfected CHO cells; also called murine CD70
T2 sequence: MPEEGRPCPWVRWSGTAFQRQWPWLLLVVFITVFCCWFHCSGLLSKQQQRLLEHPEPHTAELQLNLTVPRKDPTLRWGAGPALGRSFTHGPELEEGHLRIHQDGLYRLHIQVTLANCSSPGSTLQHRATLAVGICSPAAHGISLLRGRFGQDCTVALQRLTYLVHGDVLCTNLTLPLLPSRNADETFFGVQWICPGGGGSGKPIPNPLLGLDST
The experiment in a line: FACS on CHO cells, periplasmic scFv.
Method: (§1) All antibodies were diluted in PBS/1.5% FCS. As negative control, cells were incubated with PBS/2% FCS instead of the periplasmic extract. The samples were measured by flow cytometry.

Changes are numbered by the printed parent chain.

Method for human CD70: as §1

B1: CD70-12 (scFv)
scFv: QAQLVESGGGVVQPGRSLRLSCAASGFTFSYYGMHWVRQAPGKCLEWVAVIWYDGSNKYYADSVKGRFTISRDNSKNTLYLQMNSLRAEDTAVYYCARDREMGSRGDFDYWGQGTLVTVSSGGGGSGGGGSGGGGSDIQMTQSPSSLSASVGDRVTITCRASQGINNYLAWFQQKPGKAPKSLIYAVSILQSGVPSKFSGSGSGTDFTLTIGNLQPEDFATYYCQQYNFYPFSFGCGTKVDIK
notes: As m32
With B1, the binding result with human CD70 is given as “binds”; in test [1] it was “no binding”.

B2: CD70-7 (scFv)
scFv: QVHLVQSGAEVKKPGASVRVSCKASGYTFTSYYLHWVRQAPGQCLEWMGIVDPSGGSTSYDQKFQGRFTMTRDTSTSTVYMELSSLRSEDTAVYYCARDYGDYVFDYWGQGTLVTVSSGGGGSGGGGSGGGGSQSVLTQPPSASGTPGQRVTISCSGSSSNIGTNTVNWYQQLPGTAPQLLIYINNQRPSGVPDRFSGSKSGTSASLAISGLQSEDEADYYCATWDDSLNGPVVGCGTKLTVL
notes: As m32
B2: the values for the binding result (with human CD70; in test [1]) were “binds” and “no binding”, respectively.

B3: CD70-14 (scFv)
scFv: EVQLLESGGGLVQPGGSLKLSCAASGFTFSIYAMSWVRQAPGKGLEWVSAISGSGGSTFYADSVKGRFTISRDNSKNTLYLQMNSLRAEDTAVYYCAKHDYSNYPYFDYWGQGTLVTVSSGGGGSGGGGSGGGGSEIVLTQSPGTLSLSPGERATLSCRASQSVRSSYLAWYQQKPGQAPRLLIYGASSRATGIPDRFSGSGSGTDFTLTISRLEPEDFAVYYCQQYGDLPFTFGPGTKLEIK
notes: As m32
B3: the binding result with human CD70 is listed as “binds”; in test [1] it was “no binding”.

B4: CD70-18 (scFv)
scFv: EVQLLESGGGLVQPGGSLRLSCAASGFTFSSYAMSWVRQAPGKGLEWVSLISGSGGRTHYADSVKGRFTISRDNSKNTLYLQMNSLRAEDTAVYYCAKHDYSNYPYFDYWGQGTLVTVSSGGGGSGGGGSGGGGSEIVLTQSPGTLSLSPGERATLSCRASQSVRSTYLAWYQQKPGQAPRLLIYDASSRATGIPDRFSGSGSGTDFTLTISRLEPEDFAVYFCQQYGSSPPTFGGGTKLEIK
notes: As m32
Consider B4, for which the binding result in the test with human CD70 is reported as “binds”; in test [1], “no binding”.

B5: CD70-16 (scFv)
scFv: B3 scFv with L11M, K19R, I31S, S57R, K65E, V164I
notes: As m32
Consider B5, for which the binding result in the test with human CD70 is on record as “binds”; in test [1] it was “no binding”.

B6: CD70-28 (scFv)
scFv: B4 scFv with S31T, H59Y, T167N, D186G, S189N, F223S, S229I, L240V
notes: As m32
B6: the figures for the binding result (in the test with human CD70; in test [1]) were “binds” and “no binding”, respectively.

B7: CD70-19 (scFv)
scFv: B3 scFv with K19R, I31T, Y80S
notes: As m32
As to B7, the binding result was “binds” with human CD70 and “no binding” in test [1].

B8: CD70-25 (scFv)
scFv: B3 scFv with L11M, K19R, I31S, S57R, K65E, S167N, L240V
notes: As m32
As to B8, the figures for the binding result (with human CD70; in test [1]) were “binds” and “no binding”, respectively.

B9: CD70-21 (scFv)
scFv: B3 scFv with L11M, K19R, I31T, S57R, K65E, S167T, Y223S
notes: As m32
For the molecule B9, the binding result is given as “binds” with human CD70 and “no binding” in test [1].

B10: CD70-23 (scFv)
scFv: B3 scFv with K19R, I31V, A50T, G53D, S85R, K98R, P105A, L240V
notes: As m32
With B10, the binding result with human CD70 is recorded as “binds”; in test [1], “no binding”.

B11: CD70-27 (scFv)
scFv: B3 scFv with K19R, I31T, S57G, V164I, S167N, D229S, L230S, L240V
notes: As m32
As to B11, the values for the binding result (in the test with human CD70; in test [1]) were “binds” and “no binding”, respectively.

B12: CD70-24 (scFv)
scFv: B3 scFv with V12A, K19R, I31S, Y95F, L240V
notes: As m32
With B12, the binding result with human CD70 is “binds”; in test [1] it was “no binding”.

B13: CD70-13 (scFv)
scFv: EVQLLESGGGLVQPGGSLRLSCAASGFTFSSYAMSWVRQAPGKGLEWVSVISGSGGRPNYADSVKGRFTISRDNSKNTLYLQMNSLRDEDTAVYYCAKVDYSNYLFFDYWGQGTLVTVSSGGGGSGGGGSGGGGSEIVLTQSPGTLSLSPGEGATLSCRAGQSVRSSYLGWYQQKPGQAPRLLIYGASSRATGIPDRFSGSGSGTDFTLTISRLEPEDFAVYYCQQYGYSPPTFGGGTKLEIK
Regarding B13, the binding result with human CD70 was “binds”; in test [1] it was “no binding”.

B14: CD70-3 (scFv)
scFv: QEQLVESGGGVVQPGRSLRLSCAASGFTFSSYGMHWVRQAPGKGLEWVAVTWYDGSNKYYGDSVKGRFTISRDNSKNTLYLQMNSLRAEDTAVYYCARDLLRGVKGYAMDVWGQGTTVTVSSGGGGSGGGGSGGGGSEIVLTQSPGTLSLSPGERATLSCRASQSLRRIYLAWYQQKPGQAPRLLIYDVFDRATGIPDRFSGGGSGTDFTLTISRLEPEDFAVYYCQQYSDSPFTFGPGTKVDIK
notes: As m32
As for B14, the binding result with human CD70 is listed as “binds”; in test [1] it was “no binding”.

B15: CD70-10 (scFv)
scFv: QVQLQESGPGLVKPSQTLSLTCTVSGDSIISGGYYWSWIRQHPGKCLEWIGYIFYSGSTDYNPSLKSRVTISVDTSKNQFSLKLSSVTAADTAVYYCARSGYSYALFDHWGQGTLVTVSSGGGGSGGGGSGGGGSDIQMTQSPSSLSASVGDRVTISCRASQFIGRYFNWYQQQPGKAPKVLIYAESSLQSGVPSRFSGSGSGTEFTLTISSLQPEDFARYYCQQSYSTPWTFGCGTKVEIK
notes: As m32
For the molecule B15, the binding result is “binds” with human CD70 and “no binding” in test [1].

B16: CD70-5 (scFv)
scFv: B15 scFv with C46G, C235Q
notes: As m32
Regarding B16, the values for the binding result (with human CD70; in test [1]) were “binds” and “no binding”, respectively.

B17: CD70-6 (scFv)
scFv: B15 scFv with W231F
notes: As m32
As for B17, the binding result with human CD70 is recorded as “binds”; in test [1], “no binding”.

B18: CD70-4 (scFv)
scFv: QVQLVQSGAEVKKPGASVKVSCKASGYTFTSYGISWVRQAPGQGLEWMGWISAYNGYTHYAQKLQGRVTMTTDTSTSTAYMELRSLRSDDTAVYYCARDYGGNDYYGMDVWGQGTTVTVSSGGGGSGGGGSGGGGSQSVLTQPPSASGTPGQRVTISCSGSSSNIGINYVYWYQQLPGTAPKLLIYRSDQRPSGVPDRFSGSKSGTSASLALSGLRSEDEADYYCAAWDDSLSGVVFGGGTKLTVL
notes: As m32
Regarding B18, the binding result was “binds” with human CD70 and “no binding” in test [1].

B19: CD70-9 (scFv)
scFv: B18 scFv with G44C, G239C
notes: As m32
Consider B19, for which the binding result with human CD70 is “binds”; in test [1] it was “no binding”.

B20: CD70-11 (scFv)
scFv: QVQLVESGGGVVQPGRSLRLSCAASGFTFSTYGMHWVRQAPGKCLEWVAVIWYDGSNKYYGDSVKGRFTISRDNSKNTLYLQMNSLRAEDTAVYYCARDNSHYYYGMDVWGQGTTVTVSSGGGGSGGGGSGGGGSQSVLTQPPSVSGAPGQRVTISCTGSSSNIGAGYDVNWYQQFPGTAPKLLIYVNNNRPSGVPDRFSGSTSGTSASLAITGLQAEDEADYYCQSYETSLSASVFGCGTRLTVL
notes: As m32
Take B20: the binding result with human CD70 is “binds”; in test [1], “no binding”.

B21: CD70-1 (scFv)
scFv: QVQLVESGGGVVQPGRSLRLSCAASGFTFSTYGMHWVRQAPGKGLEWVAVIWYDGSNKYYGDSVKGRFTISRDNSKNTLYLQMNSLRAEDTAVYYCARDNSHYYYGMDVWGQGTTVTVSSGGGGSGGGGSGGGGSQSVLTQPPSVSGAPGQRVTISCTGSSSNIGAGYDVNWYQQFPGTAPKLLIYVNNNRPSGVPDRFSGSTSGTSASLAITGLQAEDEADYYCQSYDTSLSASVFGGGTRLTVLS
Consider B21, for which the figures for the binding result (with human CD70; in test [1]) were “binds” and “no binding”, respectively.

B22: CD70-2 (scFv)
scFv: QVQLVESGGGVVQPGRSLRLSCAASGFTFSSYGMHWVRQAPGKGLEWVAVIWYDGSDKYFADSVKGRFTISRDNSKNTLYLQMNSLRAEDTAVYYCARDGIAGARYVYFDYWGQGTLVTVSSGGGGSGGGGSGGGGSDIQMTQSPSSLSASVGDRVTITCRASQGISNYLAWFQQKPGKAPKSLIYAASSLQGGVPSKFSGSGSGTDFTLTISSLQPEDFATYYCQQYYNYPFTFGPGTTVDIK
For B22, the values for the binding result (in the test with human CD70; in test [1]) were “binds” and “no binding”, respectively.

B23: CD70-8 (scFv)
scFv: B22 scFv with G44C, P237C
Turning to B23, the figures for the binding result (in the test with human CD70; in test [1]) were “binds” and “no binding”, respectively.
